Like-named read-outs stand apart in the source and are kept apart here.
What was measured:
[1] = Determination of radiotracer lipophilicity (logD, phosphate buffer/1-octanol); assay type: physicochemical; conditions: phosphate buffer (0.05 M, pH 7.4) / 1-octanol, six independent experiments
Procedure: Determination of radiotracer lipophilicity. The heterobivalent ligands (22–26) as well as the monomeric reference compounds (27 and 28) were radiolabeled with ^68Ga as described before and 2 µL of the product solution (~65 pmol of the respective radioligand) were added to a mixture of phosphate buffer (0.05 M, pH 7.4, 800 µL) and 1-octanol (800 µL) and incubated for 5 min at ambient temperature under vigorous shaking. Both phases were separated by centrifugation and 100 µL of each phase were measured for radioactivity in a gamma-counter. […] (cpm = counts per minute), cpmw = activity in the aqueous phase [cpm]. These experiments were performed six times independently.

T-47D cells = assay: In vitro cell uptake (internalization) study in T-47D cells; assay type: cell-based, human; conditions: after 4 h, % of total added activity
Procedure: Cell culture. All cell lines were grown in suitable culture medium at 37 °C in a humidified CO2 (5%) atmosphere. The human breast cancer cell lines T-47D, MDA-MB-231 and MCF-7 were grown in Dulbecco’s Modified Eagle Medium (DMEM), supplemented with 10% (v/v) fetal calf serum (FCS) and 1% (v/v) L-Glutamine. For a high expression of the NPY(Y1) receptor on T-47D cells, the medium for this cell line was further supplemented with 0.15% (w/v) β-estradiol. The BT-474 and PC-3 cell lines were grown in RPMI-1640 medium, also supplemented with 10% (v/v) fetal calf serum (FCS) and 1% (v/v) L-Glutamine.
Internalization studies. Cells (T-47D, MDA-MB-231, MCF-7, BT-474 and PC-3, 1.5 × 10^6 cells per well) were seeded into 6-well plates and incubated overnight at 37 °C in a humidified CO2 (5%) atmosphere. The next day, the medium was removed and the cells were washed twice with the respective medium without supplements (ice-cold, 1 mL) and incubated with 3.7–4.0 kBq (0.37–4.0 pmol) of the respective ^68Ga-radiolabeled ligand [^68Ga]22−[^68Ga]26, [^68Ga]27 or [^68Ga]28 (in 1.5 mL medium, containing 0.5% (w/v) BSA) for defined time-points of 1, 2, 3 or 4 h at 37 °C in a humidified CO2 (5%) atmosphere. A 1000-fold excess of the respective peptide (3 or 4) was used for blocking to determine the non-specific cell uptake. At each time point, the medium was removed and the cells were washed twice with the respective medium without supplements (ice-cold, 1 mL). Cells were treated twice with 1 mL glycine buffer (ice-cold, 50 mM glycine, 100 mM NaCl, pH 2.8) for 5 min at room temperature, followed by 2 mL NaOH solution (1 M) for 10 min at 37 °C. The supernatants were collected and the radioactivity measured in a gamma counter. The internalized and surface bound activity was expressed as percentage of measured to total added activity. Each data point was generated thrice in triplicates.

[2] = Stability of the 68Ga-labeled ligands in human serum; assay type: in vitro ADME; conditions: after 90 min incubation at 37 °C, radio-HPLC
Procedure: Determination of the stability of the ligands in human serum. The heterobivalent ligands (22–26) as well as the monomeric reference compounds (27 and 28) were radiolabeled with ^68Ga as described before and 125 µL of the product solution were added to 500 µL of human serum and incubated at 37 °C. At defined time-points of 5, 15, 30, 60 and 90 min, aliquots of 75 µL of the mixture were added to 75 µL of ethanol and the precipitation of serum proteins was enhanced by ice-cooling for 2 min. After centrifugation, supernatant and precipitate were measured for radioactivity and the supernatant was analyzed by analytical radio-HPLC. These experiments were performed thrice.

T-47D tumor = assay: Small animal PET/CT imaging in T-47D tumor-bearing mice; assay type: in vivo; conditions: PET imaging, i.v. 5.5-8.0 MBq, n = 4
Procedure: In vivo experiments. All animal experiments were performed in compliance with the German animal protection laws and protocols of the local committee (Regierungspräsidium Karlsruhe, approval number: 35-9185.81/G-206/15). 20, six week old female immunodeficient Fox Chase SCID (CB17/Icr-Prkdc^scid/IcrIcoCrl) mice with an average weight of 20 g were subcutaneously implanted with 17β-estradiol pellets (0.36 mg/60 days). 4 days later, the tumors were induced by subcutaneous inoculation of 5 × 10^6 T-47D cells into the left flank of the […]. After induction, the tumors were allowed to grow for 8–10 weeks and reached a diameter of about 0.5 cm. […] After the end of the diagnostic scan, the animals were sacrificed, the organs were collected and measured in a gamma-counter.
The dynamic PET images were reconstructed using the Albira Suite Reconstructor (Bruker) with an iterative dynamic reconstruction with 12 iterations using an 2D-Maximum-Likelihood Expectation-Maximization (MLEM) algorithm and a cubic image voxel size of 0.5 mm after scatter and decay correction. […] The reconstructed PET data were manually fused with the CT images using PMOD 3.6.1.1. and analyzed. Volumes of interest (VOIs) were defined for the quantification of tracer accumulation in heart, liver, kidneys, tumor, and muscle. The results for each VOI were calculated as SUV (kBq/cm^3) averaged for each time frame.

[3] = Ex vivo biodistribution in T-47D tumor-bearing mice; conditions: female, Fox Chase SCID (CB17/Icr-Prkdc^scid/IcrIcoCrl), mouse, in vivo, iv, total radioactivity, ex vivo biodistribution at 130 min p.i.
Procedure: (§1) In vivo experiments. All animal experiments were performed in compliance with the German animal protection laws and protocols of the local committee (Regierungspräsidium Karlsruhe, approval number: 35-9185.81/G-206/15). 20, six week old female immunodeficient Fox Chase SCID (CB17/Icr-Prkdc^scid/IcrIcoCrl) mice with an average weight of 20 g were subcutaneously implanted with 17β-estradiol pellets (0.36 mg/60 days). 4 days later, the tumors were induced by subcutaneous inoculation of 5 × 10^6 T-47D cells into the left flank of the […]. After induction, the tumors were allowed to grow for 8–10 weeks and reached a diameter of about 0.5 cm. For imaging, the animals were anaesthetized with isoflurane and injected with 5.5–8.0 MBq of the respective radioligand ([^68Ga]24, [^68Ga]24a or [^68Ga]24b) into the lateral tail vein. Dynamic PET images were acquired over 90 min and CT images were obtained within further 30 min. After the end of the diagnostic scan, the animals were sacrificed, the organs were collected and measured in a gamma-counter.

T-47D tumor-bearing mice = assay: as above; conditions: 130 min p.i.
Procedure: as §1

With CCCC[C@H](NC(=O)[C@H](CCCNC(=N)N)NC(=O)[C@H](Cc1c[nH]c2ccccc12)NC(=O)[C@H](CCCCNC(=O)CON=Cc1ccc(C(=O)NCCOCCOCCOCCOCCC(=O)NCCCN(CCCNC(=O)CCOCCOCCOCCOCCNC(=O)c2ccc(C=NOCC(=O)NCCOCCOCCOCCOCCC(=O)N[C@@H](CCC(N)=O)C(=O)N[C@@H](Cc3c[nH]c4ccccc34)C(=O)N[C@@H](C)C(=O)N[C@H](C(=O)NCC(=O)N[C@@H](Cc3c[nH]cn3)C(=O)N[C@@H](CC(C)C)C(=O)N[C@@H](CCSC)C(N)=O)C(C)C)cc2)CC(=O)NCCOCCOCCOCCOCCC(=O)N[C@@H](CCCCNC(=O)CCC(C(=O)O)N2CCN(CC(=O)O)CCN(CC(=O)O)CC2)C(N)=O)cc1)NC(=O)[C@@H]1CCCN1C(=O)[C@H](CC(N)=O)NC(=O)[C@@H](N)[C@@H](C)CC)C(=O)N[C@@H](CCCNC(=N)N)C(=O)N[C@@H](Cc1ccc(O)cc1)C(N)=O (stereo partly drawn) [[^68Ga]24, metal not drawn] the logD [1] was -1.67 ± 0.086, the specific cell uptake (T-47D cells) was 50.1 ± 2.4% and the “degradation in human serum” value [2] was “no observable fragmentation”. For the same compound, the “tumor activity concentration at 85 min” value (T-47D tumor) was 122.03 ± 16.27 kBq/cm^3, the tissue to tissue ratio at 130 min ([3]; read-out: tumor-to-blood ratio (T / B)) was 2.72 ± 0.43 and the tissue to tissue ratio at 130 min ([3]; read-out: tumor-to-muscle ratio (T / M)) was 11.8 ± 1.83. For the same compound, the adrenal glands uptake (T-47D tumor-bearing mice; adrenal glands) was 3.57 ± 2.18 ID/g in %, the blood uptake (T-47D tumor-bearing mice; blood) was 1.13 ± 0.77 ID/g in % and the bone uptake (T-47D tumor-bearing mice; bone) was 0.26 ± 0.14 ID/g in %. It also gave a brain uptake (T-47D tumor-bearing mice; brain) of 0.11 ± 0.14 ID/g in %, a heart uptake (T-47D tumor-bearing mice; heart) of 0.52 ± 0.38 ID/g in % and a kidneys uptake (T-47D tumor-bearing mice; kidneys) of 34.79 ± 11.03 ID/g in %. The large intestines uptake (T-47D tumor-bearing mice; large intestines) was 1.80 ± 0.64 ID/g in %, the liver uptake (T-47D tumor-bearing mice; liver) was 10.02 ± 1.54 ID/g in % and the lung uptake (T-47D tumor-bearing mice; lung) was 0.62 ± 0.17 ID/g in %. The muscle uptake (T-47D tumor-bearing mice; muscle) was 0.26 ± 0.18 ID/g in %, the pancreas uptake (T-47D tumor-bearing mice; pancreas) was 10.54 ± 3.13 ID/g in % and the small intestines uptake (T-47D tumor-bearing mice; small intestines) was 1.49 ± 0.36 ID/g in %. It also gave a spleen uptake (T-47D tumor-bearing mice; spleen) of 1.32 ± 0.33 ID/g in %, a stomach uptake (T-47D tumor-bearing mice; stomach) of 1.47 ± 0.44 ID/g in % and a tail uptake (T-47D tumor-bearing mice; tail) of 1.30 ± 1.21 ID/g in %. It also gave a tumor uptake (T-47D tumor-bearing mice; tumor) of 3.07 ± 0.33 ID/g in %.
Compound CCCC[C@H](NC(=O)[C@H](CCCNC(=N)N)NC(=O)[C@H](Cc1c[nH]c2ccccc12)NC(=O)[C@H](CCCCNC(=O)CON=Cc1ccc(C(=O)NC2CCN(CC(=O)NC3CCN(CC(=O)NCCCN(CCCNC(=O)CN4CCC(NC(=O)CN5CCC(NC(=O)c6ccc(C=NOCC(=O)NCCOCCOCCOCCOCCC(=O)N[C@@H](CCC(N)=O)C(=O)N[C@@H](Cc7c[nH]c8ccccc78)C(=O)N[C@@H](C)C(=O)N[C@H](C(=O)NCC(=O)N[C@@H](Cc7c[nH]cn7)C(=O)N[C@@H](CC(C)C)C(=O)N[C@@H](CCSC)C(N)=O)C(C)C)cc6)CC5)CC4)CC(=O)NCCOCCOCCOCCOCCC(=O)N[C@@H](CCCCNC(=O)CCC(C(=O)O)N4CCN(CC(=O)O)CCN(CC(=O)O)CC4)C(N)=O)CC3)CC2)cc1)NC(=O)[C@@H]1CCCN1C(=O)[C@H](CC(N)=O)NC(=O)[C@@H](N)[C@@H](C)CC)C(=O)N[C@@H](CCCNC(=N)N)C(=O)N[C@@H](Cc1ccc(O)cc1)C(N)=O (stereo partly drawn) [[^68Ga]26, metal not drawn] has a logD [1] of -1.52 ± 0.089 and a specific cell uptake (T-47D cells) of 46.4 ± 2.4%.

From paper PMC6161111, “Design, Synthesis, In Vitro, and Initial In Vivo Evaluation of Heterobivalent Peptidic Ligands Targeting Both NPY(Y1)- and GRP-Receptors—An Improvement for Breast Cancer Imaging?” (Pharmaceuticals, 2018)
